Measurements: patent US20250289904A1 (UMC UTRECHT HOLDING B V, published 2025)

Key:
[1] = target: plasmin-cleaved von Willebrand factor (cVWF) (human) (UniProt P04275); assay: capture ELISA, cVWF in buffer, detection with biotinylated VHH B9
[2] = target: plasmin-cleaved von Willebrand factor (cVWF) (human) (UniProt P04275); assay: capture ELISA, cVWF spiked in citrated normal pooled plasma, detection with biotinylated VHH B9
[3] = target: T1, intact von Willebrand factor (VWF) (human, UniProt P04275 764-2813); assay: capture ELISA, VHH coated on plate, concentration series of VWF in buffer, detection with biotinylated VHH B9 and streptavidin-poly HRP
T1 construct: also called uncleaved VWF; purified VWF

[4] = target: plasmin-cleaved von Willebrand factor (cVWF) (human) (UniProt P04275); assay: capture ELISA, VHH coated on plate, concentration series of VWF and cVWF in buffer, detection with biotinylated VHH B9; reference: intact VWF

T1 sequence (P04275 764-2813 limits assumed): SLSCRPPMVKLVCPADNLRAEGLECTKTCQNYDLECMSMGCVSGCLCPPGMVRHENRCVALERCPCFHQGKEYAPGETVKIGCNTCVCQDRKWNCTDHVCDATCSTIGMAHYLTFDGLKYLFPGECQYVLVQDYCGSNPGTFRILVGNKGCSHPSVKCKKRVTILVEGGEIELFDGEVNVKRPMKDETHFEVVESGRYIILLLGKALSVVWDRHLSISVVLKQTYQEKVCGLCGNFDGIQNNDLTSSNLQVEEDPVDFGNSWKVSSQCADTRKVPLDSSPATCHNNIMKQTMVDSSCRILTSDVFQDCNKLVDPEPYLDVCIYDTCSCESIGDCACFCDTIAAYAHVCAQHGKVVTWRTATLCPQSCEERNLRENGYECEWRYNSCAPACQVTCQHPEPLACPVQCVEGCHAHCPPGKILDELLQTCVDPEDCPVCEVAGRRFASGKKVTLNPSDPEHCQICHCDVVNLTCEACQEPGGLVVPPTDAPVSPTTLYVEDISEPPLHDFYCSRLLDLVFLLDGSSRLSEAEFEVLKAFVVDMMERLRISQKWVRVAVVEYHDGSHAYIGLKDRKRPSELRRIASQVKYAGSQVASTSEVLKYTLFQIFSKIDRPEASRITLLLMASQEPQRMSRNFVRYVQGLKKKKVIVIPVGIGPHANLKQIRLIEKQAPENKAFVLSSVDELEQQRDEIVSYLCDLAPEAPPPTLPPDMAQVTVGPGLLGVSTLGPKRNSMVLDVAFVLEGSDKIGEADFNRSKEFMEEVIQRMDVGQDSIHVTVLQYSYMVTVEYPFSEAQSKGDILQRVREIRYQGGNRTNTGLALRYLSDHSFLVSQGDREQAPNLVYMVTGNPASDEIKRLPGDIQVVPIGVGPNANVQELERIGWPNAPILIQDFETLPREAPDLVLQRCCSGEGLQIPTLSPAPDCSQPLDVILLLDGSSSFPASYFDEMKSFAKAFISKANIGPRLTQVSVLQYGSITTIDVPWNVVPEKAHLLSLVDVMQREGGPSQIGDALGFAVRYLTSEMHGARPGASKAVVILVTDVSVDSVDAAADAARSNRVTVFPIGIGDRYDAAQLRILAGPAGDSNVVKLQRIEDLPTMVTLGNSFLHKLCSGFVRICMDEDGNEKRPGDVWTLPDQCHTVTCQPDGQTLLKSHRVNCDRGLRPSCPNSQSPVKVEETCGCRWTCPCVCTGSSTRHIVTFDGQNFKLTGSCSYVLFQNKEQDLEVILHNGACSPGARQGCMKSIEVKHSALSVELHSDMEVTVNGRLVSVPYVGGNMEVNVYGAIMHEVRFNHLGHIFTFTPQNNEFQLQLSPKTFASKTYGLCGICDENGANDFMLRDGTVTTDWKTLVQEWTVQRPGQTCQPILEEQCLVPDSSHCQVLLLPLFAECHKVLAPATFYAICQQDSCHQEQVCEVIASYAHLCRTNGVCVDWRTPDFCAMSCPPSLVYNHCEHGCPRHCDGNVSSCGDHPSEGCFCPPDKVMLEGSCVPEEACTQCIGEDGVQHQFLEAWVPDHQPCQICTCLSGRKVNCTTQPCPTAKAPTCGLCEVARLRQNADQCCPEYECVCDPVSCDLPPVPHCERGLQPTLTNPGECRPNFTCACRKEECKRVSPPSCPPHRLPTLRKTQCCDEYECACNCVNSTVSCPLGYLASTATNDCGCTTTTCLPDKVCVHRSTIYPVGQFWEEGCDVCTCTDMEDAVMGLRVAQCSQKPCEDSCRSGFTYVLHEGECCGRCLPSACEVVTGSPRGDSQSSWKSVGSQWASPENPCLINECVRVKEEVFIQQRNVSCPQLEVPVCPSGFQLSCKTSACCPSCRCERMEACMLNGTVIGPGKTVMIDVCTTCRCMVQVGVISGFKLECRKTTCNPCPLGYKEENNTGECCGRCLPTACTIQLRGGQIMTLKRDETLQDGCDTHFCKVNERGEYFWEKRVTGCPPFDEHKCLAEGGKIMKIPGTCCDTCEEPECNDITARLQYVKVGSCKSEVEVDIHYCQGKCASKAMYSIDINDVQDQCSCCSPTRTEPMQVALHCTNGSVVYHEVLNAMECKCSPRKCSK

sensitivity of the cVWF ELISA [1] [ng/mL] | sensitivity of the cVWF ELISA [2] [ng/mL] | binding result [3] | fold discrimination between VWF and cVWF [4] [fold] | Binder
4 | 4 | – | – | cVWF capture VHH #2 (G5) (VHH, not shown: small tags and cut ends) VHH: EVQLVESGGGLVQAGGSLRLSCAVSGRTVSNSMAWFRQAPEKEREFVAAISWNSGRTDYADSVKGRFTISRDNAKNTVDLQMNSLKAEDTAVYYCAVHRVRIEPKEYLYWGQGTQVTVSS
– | – | no binding | – | negative control VHH-R2 (VHH, Production and tags of this control are not described) VHH: QVQLQESGGGLVQAGGSLRLSCAASGRATSGHGHYGMGWFRQVPGKEREFVAAIRWSGKETWYKDSVKGRFTISRDNAKTTVYLQMNSLKPEDTAVYYCAARPVRVDDISLPVGFDYWGQGTQVTVSS
8 | 8 | – | 144 | cVWF capture VHH #1 (F5) (VHH, not shown: small tags and cut ends) VHH: EVQLVESGGGLVQAGGSLRLSCAASGQTDSTYTGGWFRQAPGKEREFVATFSWNSGRTHFADSVKGRFTISRDNAKSTVFLQMNSLKPEDTAVYYCAAHRTSLTDYSFRYWGQGTHVTVSS
